± gives the uncertainty stated by the source.

Our source for the abundance fitness values is the Human Domainome abundance scans (Beltran et al. 2025).

Sequences and labels used below:
B1: CD2-associated protein, residues 271 to 331; numbered along this chain, Q9Y5K6 (parent)
chain: KEYCRTLFAYEGTNEDELTFKEGEIIHLISKETGEAGWWRGELNGKEGVFPDNFAVQINEL
B2: Protein piccolo, residues 1058 to 1114; numbered along this chain, Q9Y6V0 (parent)
chain: TCPLCKTELNIGSKDPPNFNTCTECKNQVCNLCGFNPTPHLTEIQEWLCLNCQTQRA

One series covers variants of B1. The experiment in a line: abundance fitness (aPCA) (normalised: wild type 0, dead -1); higher = more abundant; growth selection in yeast, the domain comes from the species named. The settings on record: Homo sapiens.
Take KEHCRTLFAYEGTNEDELTFKEGEIIHLISKETGEAGWWRGELNGKEGVFPDNFAVQINEL [Y3H]: the abundance fitness was -0.278 ± 0.26.
Still for that read-out and setting: as for KEACRTLFAYEGTNEDELTFKEGEIIHLISKETGEAGWWRGELNGKEGVFPDNFAVQINEL [Y3A], the figure is -0.369 ± 0.071.
Take KEGCRTLFAYEGTNEDELTFKEGEIIHLISKETGEAGWWRGELNGKEGVFPDNFAVQINEL [Y3G]: the abundance fitness is -0.611 ± 0.14.
Still for that read-out and setting: as for KEKCRTLFAYEGTNEDELTFKEGEIIHLISKETGEAGWWRGELNGKEGVFPDNFAVQINEL [Y3K], the figure is -0.748 ± 0.3.
For KEECRTLFAYEGTNEDELTFKEGEIIHLISKETGEAGWWRGELNGKEGVFPDNFAVQINEL [Y3E], the abundance fitness was -0.567 ± 0.17.
As for KEDCRTLFAYEGTNEDELTFKEGEIIHLISKETGEAGWWRGELNGKEGVFPDNFAVQINEL [Y3D], the abundance fitness was -0.555 ± 0.27.
On the same count and under the same terms, as for KEFCRTLFAYEGTNEDELTFKEGEIIHLISKETGEAGWWRGELNGKEGVFPDNFAVQINEL [Y3F], the figure is 0.001 ± 0.11; as for KVYCRTLFAYEGTNEDELTFKEGEIIHLISKETGEAGWWRGELNGKEGVFPDNFAVQINEL [E2V], -0.222 ± 0.064.
Still for that read-out and setting: as for KNYCRTLFAYEGTNEDELTFKEGEIIHLISKETGEAGWWRGELNGKEGVFPDNFAVQINEL [E2N], the figure is 0.002 ± 0.12; as for KSYCRTLFAYEGTNEDELTFKEGEIIHLISKETGEAGWWRGELNGKEGVFPDNFAVQINEL [E2S], -0.128 ± 0.067.
Turning to KQYCRTLFAYEGTNEDELTFKEGEIIHLISKETGEAGWWRGELNGKEGVFPDNFAVQINEL [E2Q], the abundance fitness is -0.05 ± 0.22.
As for KFYCRTLFAYEGTNEDELTFKEGEIIHLISKETGEAGWWRGELNGKEGVFPDNFAVQINEL [E2F], the abundance fitness was -0.351 ± 0.18.
Take KWYCRTLFAYEGTNEDELTFKEGEIIHLISKETGEAGWWRGELNGKEGVFPDNFAVQINEL [E2W]: the abundance fitness was -0.525 ± 0.14.
Same read-out and setting: as for KPYCRTLFAYEGTNEDELTFKEGEIIHLISKETGEAGWWRGELNGKEGVFPDNFAVQINEL [E2P], the figure is -0.306 ± 0.13; as for KMYCRTLFAYEGTNEDELTFKEGEIIHLISKETGEAGWWRGELNGKEGVFPDNFAVQINEL [E2M], 0.073 ± 0.15.
KKYCRTLFAYEGTNEDELTFKEGEIIHLISKETGEAGWWRGELNGKEGVFPDNFAVQINEL [E2K]: the abundance fitness was -0.084 ± 0.13.
Still for that read-out and setting: as for KDYCRTLFAYEGTNEDELTFKEGEIIHLISKETGEAGWWRGELNGKEGVFPDNFAVQINEL [E2D], the figure is 0.039 ± 0.12; as for KGYCRTLFAYEGTNEDELTFKEGEIIHLISKETGEAGWWRGELNGKEGVFPDNFAVQINEL [E2G], -0.078 ± 0.057.
As to KHYCRTLFAYEGTNEDELTFKEGEIIHLISKETGEAGWWRGELNGKEGVFPDNFAVQINEL [E2H], the abundance fitness is 0.049 ± 0.16.
Consider KLYCRTLFAYEGTNEDELTFKEGEIIHLISKETGEAGWWRGELNGKEGVFPDNFAVQINEL [E2L], for which the abundance fitness is -0.136 ± 0.074.
The same measure, in the same setting: as for KTYCRTLFAYEGTNEDELTFKEGEIIHLISKETGEAGWWRGELNGKEGVFPDNFAVQINEL [E2T], the figure is -0.121 ± 0.083.
Still for that read-out and setting: as for KAYCRTLFAYEGTNEDELTFKEGEIIHLISKETGEAGWWRGELNGKEGVFPDNFAVQINEL [E2A], the figure is -0.022 ± 0.068; as for KRYCRTLFAYEGTNEDELTFKEGEIIHLISKETGEAGWWRGELNGKEGVFPDNFAVQINEL [E2R], -0.245 ± 0.063.
Take VEYCRTLFAYEGTNEDELTFKEGEIIHLISKETGEAGWWRGELNGKEGVFPDNFAVQINEL [K1V]: the abundance fitness was -0.332 ± 0.088.
Take SEYCRTLFAYEGTNEDELTFKEGEIIHLISKETGEAGWWRGELNGKEGVFPDNFAVQINEL [K1S]: the abundance fitness was -0.229 ± 0.091.
The same measure, in the same setting: as for WEYCRTLFAYEGTNEDELTFKEGEIIHLISKETGEAGWWRGELNGKEGVFPDNFAVQINEL [K1W], the figure is -0.543 ± 0.11.
On the same count and under the same terms, as for MEYCRTLFAYEGTNEDELTFKEGEIIHLISKETGEAGWWRGELNGKEGVFPDNFAVQINEL [K1M], the figure is -0.154 ± 0.081; as for IEYCRTLFAYEGTNEDELTFKEGEIIHLISKETGEAGWWRGELNGKEGVFPDNFAVQINEL [K1I], -0.245 ± 0.12.
The same measure, in the same setting: as for TEYCRTLFAYEGTNEDELTFKEGEIIHLISKETGEAGWWRGELNGKEGVFPDNFAVQINEL [K1T], the figure is -0.394 ± 0.079; as for YEYCRTLFAYEGTNEDELTFKEGEIIHLISKETGEAGWWRGELNGKEGVFPDNFAVQINEL [K1Y], -0.656 ± 0.13.
Turning to QEYCRTLFAYEGTNEDELTFKEGEIIHLISKETGEAGWWRGELNGKEGVFPDNFAVQINEL [K1Q], the abundance fitness is -0.343 ± 0.1.
On the same count and under the same terms, as for EEYCRTLFAYEGTNEDELTFKEGEIIHLISKETGEAGWWRGELNGKEGVFPDNFAVQINEL [K1E], the figure is -0.083 ± 0.083; as for FEYCRTLFAYEGTNEDELTFKEGEIIHLISKETGEAGWWRGELNGKEGVFPDNFAVQINEL [K1F], -0.337 ± 0.21.
The same measure, in the same setting: as for GEYCRTLFAYEGTNEDELTFKEGEIIHLISKETGEAGWWRGELNGKEGVFPDNFAVQINEL [K1G], the figure is -0.223 ± 0.056; as for NEYCRTLFAYEGTNEDELTFKEGEIIHLISKETGEAGWWRGELNGKEGVFPDNFAVQINEL [K1N], -0.384 ± 0.098.
Same read-out and setting: as for REYCRTLFAYEGTNEDELTFKEGEIIHLISKETGEAGWWRGELNGKEGVFPDNFAVQINEL [K1R], the figure is -0.277 ± 0.074; as for LEYCRTLFAYEGTNEDELTFKEGEIIHLISKETGEAGWWRGELNGKEGVFPDNFAVQINEL [K1L], -0.296 ± 0.061; as for HEYCRTLFAYEGTNEDELTFKEGEIIHLISKETGEAGWWRGELNGKEGVFPDNFAVQINEL [K1H], -0.489 ± 0.32.
Consider DEYCRTLFAYEGTNEDELTFKEGEIIHLISKETGEAGWWRGELNGKEGVFPDNFAVQINEL [K1D], for which the abundance fitness was -0.364 ± 0.088.
The same measure, in the same setting: as for AEYCRTLFAYEGTNEDELTFKEGEIIHLISKETGEAGWWRGELNGKEGVFPDNFAVQINEL [K1A], the figure is -0.529 ± 0.097; as for CEYCRTLFAYEGTNEDELTFKEGEIIHLISKETGEAGWWRGELNGKEGVFPDNFAVQINEL [K1C], -0.629 ± 0.14.

In another series the parent is B2. The series is described as above. Particulars: Homo sapiens.
In the case of TCPLCKTELNIGSKHPPNFNTCTECKNQVCNLCGFNPTPHLTEIQEWLCLNCQTQRA [D15H], the abundance fitness was -0.239 ± 0.46.
As to TCPLCKTELNIGSKDPPNFNTCTECKNQVCNLCGFNPTPHLTEIQEFLCLNCQTQRA [W47F], the abundance fitness was -0.065 ± 0.16.
Still for that read-out and setting: as for TCPLCKTELNIGSKDPPNFNTCTECKNQVCNLCGFNPTPHLTEIQEDLCLNCQTQRA [W47D], the figure is 0.006 ± 0.26; as for TCPLCKTELNIGSKDPPNFNTCTECKNQVCNLCGFNPTPHLTEIQEWLCYNCQTQRA [L50Y], -0.239 ± 0.25.
